Assay results taken from patent US20230035659A1, “Compositions and Methods for TTR Gene Editing and Treating ATTR Amyloidosis Comprising a Corticosteroid or Use Thereof” (Intellia Therapeutics, Inc., priority 2019, published 2023).
Strand notation (5' to 3'): a small letter for the sugar, then the base; units joined by * are phosphorothioate-linked, units joined directly phosphodiester-linked; [ ] holds rarer units or linkages, { } end groups; capitals alone tell only the bases. m = 2'-O-methyl; r = 2'-OH (RNA)

B1: G000505: TTR Cyno specific sgRNA modified sequence, SEQ ID NO: 117; guide sequence of CR005365 (nucleic acid)
guide: mC*mA*mU*rUrGrArCrArGrCrArGrGrArCrUrGrCrCrUrGrUrUrUrUrArGrAmGmCmUmAmGmAmAmAmUmAmGmCrArArGrUrUrArArArArUrArArGrGrCrUrArGrUrCrCrGrUrUrArUrCrAmAmCmUmUmGmAmAmAmAmAmGmUmGmGmCmAmCmCmGmAmGmUmCmGmGmUmGmCmU*mU*mU*mU
B2: G000509: TTR Cyno specific sgRNA modified sequence, SEQ ID NO: 121; guide sequence of CR005369 (nucleic acid)
guide: mA*mA*mA*rGrUrUrCrUrArGrArUrGrCrCrGrUrCrCrGrGrUrUrUrUrArGrAmGmCmUmAmGmAmAmAmUmAmGmCrArArGrUrUrArArArArUrArArGrGrCrUrArGrUrCrCrGrUrUrArUrCrAmAmCmUmUmGmAmAmAmAmAmGmUmGmGmCmAmCmCmGmAmGmUmCmGmGmUmGmCmU*mU*mU*mU
B3: G000571: TTR sgRNA modified sequence, Human, SEQ ID NO: 112; guide sequence of CR005301 (nucleic acid)
guide: mG*mU*mC*rArCrArGrArArArCrArCrUrCrArCrCrGrUrGrUrUrUrUrArGrAmGmCmUmAmGmAmAmAmUmAmGmCrArArGrUrUrArArArArUrArArGrGrCrUrArGrUrCrCrGrUrUrArUrCrAmAmCmUmUmGmAmAmAmAmAmGmUmGmGmCmAmCmCmGmAmGmUmCmGmGmUmGmCmU*mU*mU*mU
B4: G000506: TTR Cyno specific sgRNA modified sequence, SEQ ID NO: 118; guide sequence of CR005366 (nucleic acid)
guide: mA*mU*mA*rCrCrArGrUrCrCrArGrCrGrArGrGrCrArGrGrUrUrUrUrArGrAmGmCmUmAmGmAmAmAmUmAmGmCrArArGrUrUrArArArArUrArArGrGrCrUrArGrUrCrCrGrUrUrArUrCrAmAmCmUmUmGmAmAmAmAmAmGmUmGmGmCmAmCmCmGmAmGmUmCmGmGmUmGmCmU*mU*mU*mU
B5: G000510: TTR Cyno specific sgRNA modified sequence, SEQ ID NO: 122; guide sequence of CR005370 (nucleic acid)
guide: mA*mC*mU*rUrGrUrCrUrUrCrUrCrUrArUrArCrCrCrArGrUrUrUrUrArGrAmGmCmUmAmGmAmAmAmUmAmGmCrArArGrUrUrArArArArUrArArGrGrCrUrArGrUrCrCrGrUrUrArUrCrAmAmCmUmUmGmAmAmAmAmAmGmUmGmGmCmAmCmCmGmAmGmUmCmGmGmUmGmCmU*mU*mU*mU

Assays:
[1] = tested on: TTR; assay: TTR editing dose response (EC50, maximum editing) in primary human hepatocytes treated with LNP formulated U-depleted Spy Cas9 mRNA and sgRNAs; assay type: cell-based
Experimental: (§1) Primary liver hepatocytes. Primary human liver hepatocytes (PHH) and primary cynomolgus liver hepatocytes (PCH) (Gibco) were cultured per the manufacturer's protocol (Invitrogen, protocol 11.28.2012). In brief, the cells were thawed and resuspended in hepatocyte thawing medium with supplements (Gibco, Cat. CM7000) followed by centrifugation at 100 g for 10 minutes for human and 80 g for 4 minutes for cyno. The supernatant was discarded and the pelleted cells resuspended in hepatocyte plating medium plus supplement pack (Invitrogen, Cat. A1217601 and CM3000). Cells were counted and plated on Bio-coat collagen I coated 96-well plates (ThermoFisher, Cat. 877272) at a density of 33,000 cells/well for human or 60,000 cells/well for cyno (or 65,000 cells/well when assaying effects on TTR protein, described further below). Plated cells were allowed to settle and adhere for 6 or 24 hours in a tissue culture incubator at 37° C. and 5% CO2 atmosphere. After incubation cells were checked for monolayer formation and media was replaced with hepatocyte culture medium with serum-free supplement pack (Invitrogen, Cat. A1217601 and CM4000).
(§2) For LNPs prepared using the cross-flow technique, the LNPs were formed by impinging jet mixing of the lipid in ethanol with two volumes of RNA solutions and one volume of water. The lipid in ethanol is mixed through a mixing cross with the two volumes of RNA solution. A fourth stream of water is mixed with the outlet stream of the cross through an inline tee. (See WO2016010840 FIG. 2.) The LNPs were held for 1 hour at room temperature, and further diluted with water (approximately 1:1 v/v). Diluted LNPs were concentrated using tangential flow filtration on a flat sheet cartridge (Sartorius, 100 kD MWCO) and then buffer exchanged by diafiltration into 50 mM Tris, 45 mM NaCl, 5% (w/v) sucrose, pH 7.5 (TSS). Alternatively, the final buffer exchange into TSS was completed with PD-10 desalting columns (GE). If required, formulations were concentrated by centrifugation with Amicon 100 kDa centrifugal filters (Millipore). The resulting mixture was then filtered using a 0.2 μm sterile filter. The final LNP was stored at 4° C. or −80° C. until further use.
(§3) Additional PCR was performed per the manufacturer's protocols (Illumina) to add chemistry for sequencing. The amplicons were sequenced on an Illumina MiSeq instrument. The reads were aligned to a reference genome (e.g., the human reference genome (hg38), the cynomologus reference genome (mf5), the rat reference genome (rn6), or the mouse reference genome (mm10)) after eliminating those having low quality scores. The resulting files containing the reads were mapped to the reference genome (BAM files), where reads that overlapped the target region of interest were selected and the number of wild type reads versus the number of reads which contain an insertion, substitution, or deletion was calculated.
(§4) The editing percentage (e.g., the “editing efficiency” or “percent editing” or “indel frequency”) is defined as the total number of sequence reads with insertions/deletions (“indels”) or substitutions over the total number of sequence reads, including wild type.
(§5) Lipid nanoparticle formulations of modified sgRNAs targeting human TTR and the cyno matched sgRNA sequences were tested on primary human hepatocytes and primary cyno hepatocytes in a dose response curve. Primary human and cyno hepatocytes were plated as described in Example 1. Both cell lines were incubated at 37° C., 5% CO2 for 24 hours prior to treatment with LNPs. The LNPs used in the experiments detailed in Tables 20-22 were prepared using the cross-flow procedure described above but purified using PD-10 columns (GE Healthcare Life Sciences) and concentrated using Amicon centrifugal filter units (Millipore Sigma), each containing the specified sgRNA and Cas9 mRNA (SEQ ID NO:1). […] LNPs were incubated in hepatocyte maintenance media containing 6% cyno serum at 37° C., 5% CO2 for 5 minutes. […]

[2] = tested on: TTR; assay: TTR editing dose response (EC50, maximum editing) in primary cyno hepatocytes treated with LNP formulated U-depleted Spy Cas9 mRNA and sgRNAs; assay type: cell-based, cynomolgus monkey
Experimental: as §1, §2, §3, §4, §5

[3] = tested on: TTR; assay: TTR editing in primary cyno hepatocytes treated with LNP formulated Spy Cas9 mRNA (SEQ ID NO: 2) and sgRNAs, 12.5 ng mRNA; assay type: cell-based, cynomolgus monkey; details: LNP formulated Spy Cas9 mRNA (SEQ ID NO: 2) and cyno matched sgRNA, lysed 72 hours post treatment
Experimental: as §1
In general, the lipid nanoparticle components were dissolved in 100% ethanol with the lipid component of various molar ratios. The RNA cargos were dissolved in 25 mM citrate, 100 mM NaCl, pH 5.0, resulting in a concentration of RNA cargo of approximately 0.45 mg/mL. The LNPs were formulated with a lipid amine to RNA phosphate (N:P) molar ratio of about 4.5 or about 6, with the ratio of mRNA to gRNA at 1:1 by weight.
The LNPs were formed by microfluidic mixing of the lipid and RNA solutions using a Precision Nanosystems NanoAssemblr™ Benchtop Instrument, according to the manufacturer's protocol. A 2:1 ratio of aqueous to organic solvent was maintained during mixing using differential flow rates. […]
as §3, with “The amplicons were sequenced on an Illumina MiSeq instrument.” left out
The editing percentage (e.g., the “editing efficiency” or “percent editing” or “indel frequency”) is defined as the total number of sequence reads with insertions/deletions (“indels”) or substitutions over the total number of sequence reads, including wild type. […]

[4] = tested on: potential off-target genomic sites; assay: Off-target analysis by oligo insertion based assay in primary human hepatocytes (sgRNAs); assay type: cell-based; details: 100 ng Cas9 mRNA, 25 nM sgRNA, 12.5 nM donor oligo, 48 h
Experimental: Off-target analysis of sgRNAs targeting TTR was performed in primary human hepatocytes (PHH) as described in Example 5, with the following modifications. PHH were plated at a density of 33,000 cells per well on collagen-coated 96-well plates as described in Example 1. Twenty-four hours post plating, cells were washed with media and transfected using Lipofectamine RNAiMAX (ThermoFisher, Cat. 13778150) as described in Example 1. Cells were transfected with a lipoplex containing 100 ng Cas9 mRNA, immediately followed by the addition of another lipoplex containing 25 nM of the sgRNA and 12.5 nM of the donor oligo (0.3 μL/well). Cells were lysed 48 hours post-transfection and gDNA was extracted and analyzed as further described in Example 5. The data is graphically represented in FIG. 20.
Fewer sites were detected in PHH for every guide tested as compared to the HekCas9 cell line, with no unique sites detected in PHH alone.

[5] = tested on: TTR mRNA; assay: TTR mRNA knockdown (quantitative PCR) in primary human hepatocytes treated with LNPs; assay type: cell-based; details: PHH; LNP dose 300 ng mRNA cargo; gRNA:mRNA 1:2; 96 h; biological triplicates; vs untreated control
Experimental: In one experiment, PHH were cultured and treated with LNPs comprising Cas9 mRNA (SEQ ID NO:1) and a gRNA of interest (See FIG. 29, Table 36), as described in Example 4. The LNPs were prepared using the cross-flow procedure described above and purified and concentrated using PD-10 columns and Amicon centrifugal filter units, respectively. The LNPs were formulated with an N:P ratio of 6.0 and contained Lipid A, Cholesterol, DSPC, and PEG2k-DMG in a 50:38:9:2 molar ratio, respectively. The LNPs comprised a gRNA:mRNA ratio of 1:2, and the cells were treated at a dose of 300 ng (with respect to the amount of mRNA cargo delivered).
(§6) Ninety-six (96) hours following LNP treatment (with biological triplicates for each condition), mRNA was purified from PHH cells using the Dynabeads mRNA DIRECT Kit (ThermoFisher Scientific) according to the manufacturer's protocol. Reverse Transcription (RT) was performed with Maxima reverse transcriptase (ThermoFisher Scientific) and a poly-dT primer. The resulting cDNA was purified with Ampure XP Beads (Agencourt). For Quantitative PCR, 2% of the purified cDNA was amplified with Taqman Fast Advanced Mastermix and 3 Taqman probe sets, TTR (Assay ID: Hs00174914_m1), GAPDH (Assay ID: Hs02786624_g1), and PPIB (Assay ID: Hs00168719_m1). The assays were run on the QuantStudio 7 Flex Real Time PCR System according to the manufacturer's instructions (Life Technologies). Relative expression of TTR mRNA was calculated by normalizing to the endogenous controls (GAPDH and PPIB) individually, and then averaged.
The groups in FIG. 29 and Table 36 are identified by the gRNA ID used in each LNP preparation.
In a separate experiment, TTR mRNA knockdown was evaluated following treatment with LNPs comprising G000480, G000486, and G000502. The LNPs were formulated and PHH were cultured and treated with the LNPs, each as described in the experiment above in this Example with the exception that the cells were treated at a dose of 100 ng (with respect to the amount of mRNA cargo delivered).
as §6, with “(single treatment” for “(with biological triplicates”, “the High Capacity cDNA Reverse Transcription Kit” for “Maxima reverse transcriptase”, “according to the manufacturer's instructions.” for “and a poly-dT primer. The resulting cDNA was purified with Ampure XP Beads (Agencourt).”, “the” for “the purified”
The groups in FIG. 30 and Table 37 are identified by the gRNA ID used in each LNP preparation.

[6] = LNP with U-depleted Spy Cas9 mRNA and cyno specific sgRNA, 8 point 3-fold dose response starting at 300 ng mRNA, 72 hours
[7] = LNP formulated U-depleted Spy Cas9 mRNA and cyno specific sgRNAs
[8] = LNP formulated U-depleted Spy Cas9 mRNA and human specific sgRNAs

Molecule	Max Editing [1, 6]	Max Editing [2, 7]	Max Editing [2, 8]	12.5 ng mRNA, 3.9 nM sgRNA, Avg % Edit [3]	Max Editing ([1]; LNP formulated U-depleted Spy Cas9 mRNA and human specific sgRNAs, dose response)	# Sites in PHH (off-target integration sites detected) [4]	Avg % Knockdown (TTR mRNA) [5]
B1	13.48%	99.97%	13.48%	–	–	–	–
B2	–	–	–	74.47%	–	–	–
B3	–	–	97.03%	–	71.28%	1	96.17%
B4	89.49%	99.18%	89.49%	60.13%	–	–	–
B5	–	–	–	61.87%	–	–	–
